Laboratory results from paper PMC5737080.
Read-outs that look alike come from different tables or passages of the source.

Tests used:
[1] = target: β-S109C/Q299C-(AF488)2 (E. coli) (UniProt P0A988); assay: other fluorescence titration
[2] = target: β-S109C/Q299C/R103S-(AF488)2 (E. coli) (UniProt P0A988); assay: other fluorescence titration
[3] = target: β-S109C/Q299C-(AF488)2 (E. coli) (UniProt P0A988); assay: other fluorescence titration; remark: listed apart in the source
[4] = target: β-S109C/Q299C/R103S-(AF488)2 (E. coli) (UniProt P0A988); assay: other fluorescence titration; remark: listed apart in the source
[5] = target: β-R103C/I305C-(AF488)2 (E. coli) (UniProt P0A988); assay: stopped-flow fluorescence kinetics
β-S109C-AF488 (E. coli) = β-S109C-AF488 (E. coli) (UniProt P0A988); assay: stopped-flow fluorescence kinetics
[6] = target: β-S109C/Q299C/R103S-(AF488)2 (E. coli) (UniProt P0A988); assay: stopped-flow fluorescence kinetics
[7] = target: β-S109C/Q299C/R103S-(AF488)2 (E. coli) (UniProt P0A988); assay: stopped-flow fluorescence kinetics; remark: listed apart in the source

“E. coli clamp loader, γ complex (γ3δδ’ψχ subunits) (from UniProt P06710-2;P28630;P28631;P28905;P28632)” showed a Kd [1] of 7 nM, a Kd [2] of 4.2 nM and a Kd [3] of 5.3 nM. It also gave a Kd [4] of 5 nM, a k close (reverse of step 2 of the bind-open-lock model) [5] of 4 s⁻¹ and a k open (step 2 of the bind-open-lock model) [5] of 9 s⁻¹. The koff, fast phase (k f) [5] was 0.058 s⁻¹, the koff, slow phase (k s) [5] was 0.011 s⁻¹ and the limiting observed rate constant, rapid phase of opening [5] was 11 s⁻¹. The limiting observed rate constant, slow phase of opening [5] was 1.5 s⁻¹, the maximum observed rate constant, slow phase (clamp opening step) (β-S109C-AF488 (E. coli)) was 8 s⁻¹ and the koff, fast phase (k f) [6] was 0.039 s⁻¹. It also gave a koff, slow phase (k s) [6] of 0.0098 s⁻¹, a koff, fast phase (k f) [7] of 0.046 s⁻¹ and a koff, slow phase (k s) [7] of 0.012 s⁻¹.
